For one test, the target named is Gen2 leptin. As to the kind of experiment: BLI; sample PP5871-021. On the technique in general: BLI is a label-free optical method that tracks binding on a fibre tip over time.
In test [1] the target is mbp_G4S_hlep(22-167)V94M (MBP-(G4S)-human leptin V94M-6His). As to the kind of experiment: BLI; sample PP2054-095.

B1: human leptin receptor (Fc-tagged dimeric) (Fc fusion)
chain: FNLSYPITPWRFKLSCMPPNSTYDYFLLPAGLSKNTSNSNGHYETAVEPKFNSSGTHFSNLSKTTFHCCFRSEQDRNCSLCADNIEGKTFVSTVNSLVFQQIDANWNIQCWLKGDLKLFICYVESLFKNLFRNYNYKVHLLYVLPEVLEDSPLVPQKGSFQMVHCNCSVHECCECLVPVPTAKLNDTLLMCLKITSGGVIFQSPLMSVQPINMVKPDPPLGLHMEITDDGNLKISWSSPPLVPFPLQYQVKYSENSTTVIREADKIVSATSLLVDSILPGSSYEVQVRGKRLDGPGIWSDWSTPRVFTTQDVIYFPPKILTSVGSNVSFHCIYKKENKIVPSKEIVWWMNLAEKIPQSQYDVVSDHVSKVTFFNLNETKPRGKFTYDAVYCCNEHECHHRYAELYVIDVNINISCETDGYLTKMTCRWSTSTIQSLAESTLQLRYHRSSLYCSDIPSIHPISEPKDCYLQSDGFYECIFQPIFLLSGYTMWIRINHSLGSLDSPPTCVLPDSVVKPLPPSSVKAEITINIGLLKISWEKPVFPENNLQFQIRYGLSGKEVQWKMYEVYDAKSKSVSLPVPDLCAVYAVQVRCKRLDGLGYWSNWSNPAYTVVMDIKVPMRGPEFWRIINGDTMKKEKNVTLLWKPLMKNDSLCSVQRYVINHHTSCNGTWSEDVGNHTKFTFLWTEQAHTVTVLAINSIGASVANFNLTFSWPMSKVNIVQSLSAYPLNSSCVIVSWILSPSDYKLMYFIIEWKNLNEDGEIKWLRISSSVKKYYIHDHFIPIEKYQFSLYPIFMEGVGKPKIINSFTQDDIEKHQSD
Turning to B1, the Kd with Gen2 leptin was 1.41 nM.

B2: human FC-tagged dimeric leptin receptor (Fc fusion)
chain: B1 chain
With B2, the Kd in test [1] stood at 0.93 nM.

The Kd is the free concentration of one partner at which half of the binding sites on the other are occupied at equilibrium, for simple one-to-one binding. High values mean a looser complex, low ones a tighter complex.

These data come from patent US20250346663A1 (published 2025).
